{
  "source": "patent US7696168",
  "about": "(TUFTS MEDICAL CENTER, dated 2010)",
  "test_in_all_cases": "cell-based or functional assay",
  "key": {"[1]": {"molecular_target": "T1, human PAR1 (human, UniProt P25116 42-425)", "T1 sequence (looked up)": "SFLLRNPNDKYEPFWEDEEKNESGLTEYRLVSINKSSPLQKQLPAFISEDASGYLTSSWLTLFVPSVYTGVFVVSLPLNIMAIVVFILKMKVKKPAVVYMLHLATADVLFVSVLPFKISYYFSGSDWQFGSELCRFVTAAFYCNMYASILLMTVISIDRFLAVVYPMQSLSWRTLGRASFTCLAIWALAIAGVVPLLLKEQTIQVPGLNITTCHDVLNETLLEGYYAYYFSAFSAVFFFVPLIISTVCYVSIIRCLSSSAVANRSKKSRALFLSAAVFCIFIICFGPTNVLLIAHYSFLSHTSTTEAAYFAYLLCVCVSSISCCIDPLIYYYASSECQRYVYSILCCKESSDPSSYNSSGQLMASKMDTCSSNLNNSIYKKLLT"}, "[2]": {"molecular_target": "rat somatostatin receptor (SSTR2) (rat, UniProt P30680 1-369)", "sequence (P30680 whole entry)": "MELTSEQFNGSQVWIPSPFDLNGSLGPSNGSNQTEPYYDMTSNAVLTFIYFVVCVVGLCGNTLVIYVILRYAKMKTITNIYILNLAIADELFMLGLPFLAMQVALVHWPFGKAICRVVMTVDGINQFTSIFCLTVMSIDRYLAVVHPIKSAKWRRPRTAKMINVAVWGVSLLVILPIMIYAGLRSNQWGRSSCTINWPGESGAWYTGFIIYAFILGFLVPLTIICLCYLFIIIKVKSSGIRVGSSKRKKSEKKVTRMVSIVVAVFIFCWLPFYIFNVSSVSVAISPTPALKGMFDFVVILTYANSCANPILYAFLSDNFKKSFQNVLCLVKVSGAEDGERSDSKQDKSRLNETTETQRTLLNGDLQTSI"}, "[3]": {"molecular_target": "T2, human cholecystokinin B receptor (CCKB) (human, UniProt P32239 1-447)", "T2 sequence (looked up)": "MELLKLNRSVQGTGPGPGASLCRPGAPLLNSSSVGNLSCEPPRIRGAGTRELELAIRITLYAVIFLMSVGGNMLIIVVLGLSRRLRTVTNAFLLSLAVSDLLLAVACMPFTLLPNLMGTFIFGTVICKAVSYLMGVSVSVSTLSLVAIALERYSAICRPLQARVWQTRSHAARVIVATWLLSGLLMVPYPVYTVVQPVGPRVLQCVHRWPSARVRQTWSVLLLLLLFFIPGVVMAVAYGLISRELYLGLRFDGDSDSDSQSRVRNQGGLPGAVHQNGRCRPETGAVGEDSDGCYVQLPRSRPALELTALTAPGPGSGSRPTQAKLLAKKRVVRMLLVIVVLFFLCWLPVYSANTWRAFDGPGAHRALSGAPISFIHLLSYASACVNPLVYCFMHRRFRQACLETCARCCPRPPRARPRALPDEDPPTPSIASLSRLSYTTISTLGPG"}},
  "note": "The star is where a group is joined. Palmitoyl = CCCCCCCCCCCCCCCC(=O)*",
  "data": [
    {"binder": "Palmitoyl-RCLSSSAVANRS-NH2 (SMILES CCCCCCCCCCCCCCCC(=O)N[C@@H](CCCNC(=N)N)C(=O)N[C@@H](CS)C(=O)N[C@@H](CC(C)C)C(=O)N[C@@H](CO)C(=O)N[C@@H](CO)C(=O)N[C@@H](CO)C(=O)N[C@@H](C)C(=O)N[C@H](C(=O)N[C@@H](C)C(=O)N[C@@H](CC(N)=O)C(=O)N[C@@H](CCCNC(=N)N)C(=O)N[C@@H](CO)C(N)=O)C(C)C)", "note": "[P1pal-12 (Pal-RCLSSSAVANRS)]", "values": [
      {"measurement": "Antagonist IC50 (InsP formation, against 0.1 nM thrombin)", "setting": "[1]", "result": 5, "unit": "µM"}
    ]},
    {"binder": "Palmitoyl-AVANRSKKSRALF-NH2 (SMILES CCCCCCCCCCCCCCCC(=O)N[C@@H](C)C(=O)N[C@H](C(=O)N[C@@H](C)C(=O)N[C@@H](CC(N)=O)C(=O)N[C@@H](CCCNC(=N)N)C(=O)N[C@@H](CO)C(=O)N[C@@H](CCCCN)C(=O)N[C@@H](CCCCN)C(=O)N[C@@H](CO)C(=O)N[C@@H](CCCNC(=N)N)C(=O)N[C@@H](C)C(=O)N[C@@H](CC(C)C)C(=O)N[C@@H](Cc1ccccc1)C(N)=O)C(C)C)", "note": "[P1pal-13 (Pal-AVANRSKKSRALF)]", "values": [
      {"measurement": "Agonist EC50 (activating phase, InsP formation)", "setting": "[1]", "result": 0.7, "unit": "µM"},
      {"measurement": "Agonist IC50 (inhibitory phase, InsP formation)", "setting": "[1]", "result": 32, "unit": "µM"}
    ]},
    {"binder": "Palmitoyl-KVKSSGIRVGSSKRKKSEKKVTK-NH2 (SMILES CCCCCCCCCCCCCCCC(=O)N[C@@H](CCCCN)C(=O)N[C@H](C(=O)N[C@@H](CCCCN)C(=O)N[C@@H](CO)C(=O)N[C@@H](CO)C(=O)NCC(=O)N[C@H](C(=O)N[C@@H](CCCNC(=N)N)C(=O)N[C@H](C(=O)NCC(=O)N[C@@H](CO)C(=O)N[C@@H](CO)C(=O)N[C@@H](CCCCN)C(=O)N[C@@H](CCCNC(=N)N)C(=O)N[C@@H](CCCCN)C(=O)N[C@@H](CCCCN)C(=O)N[C@@H](CO)C(=O)N[C@@H](CCC(=O)O)C(=O)N[C@@H](CCCCN)C(=O)N[C@@H](CCCCN)C(=O)N[C@H](C(=O)N[C@H](C(=O)N[C@@H](CCCCN)C(N)=O)[C@@H](C)O)C(C)C)C(C)C)[C@@H](C)CC)C(C)C)", "note": "[S2pal-23 (Pal-KVKSSGIRVGSSKRKKSEKKVTK)]", "values": [
      {"measurement": "Antagonist IC50 (InsP formation, against 1 µM …)", "setting": "[2]", "result": 2, "unit": "µM"}
    ]},
    {"binder": "Palmitoyl-KKSRALF-NH2", "note": "[P1pal-7 (Pal-KKSRALF)]", "values": [
      {"measurement": "Antagonist IC50 (InsP formation, against 0.1 nM thrombin)", "setting": "[1]", "result": 1.2, "unit": "µM"}
    ]},
    {"binder": "Palmitoyl-RCESSSAEANRSKKERELF-NH2 (SMILES CCCCCCCCCCCCCCCC(=O)N[C@@H](CCCNC(=N)N)C(=O)N[C@@H](CS)C(=O)N[C@@H](CCC(=O)O)C(=O)N[C@@H](CO)C(=O)N[C@@H](CO)C(=O)N[C@@H](CO)C(=O)N[C@@H](C)C(=O)N[C@@H](CCC(=O)O)C(=O)N[C@@H](C)C(=O)N[C@@H](CC(N)=O)C(=O)N[C@@H](CCCNC(=N)N)C(=O)N[C@@H](CO)C(=O)N[C@@H](CCCCN)C(=O)N[C@@H](CCCCN)C(=O)N[C@@H](CCC(=O)O)C(=O)N[C@@H](CCCNC(=N)N)C(=O)N[C@@H](CCC(=O)O)C(=O)N[C@@H](CC(C)C)C(=O)N[C@@H](Cc1ccccc1)C(N)=O)", "note": "[P1pal-19E (Pal-RCESSSAEANRSKKERELF)]", "values": [
      {"measurement": "Agonist EC50 (activating phase, InsP formation)", "setting": "[1]", "result": 2.5, "unit": "µM"},
      {"measurement": "Agonist Efficacy (% of full response to extracellular agonist)", "setting": "[1]", "result": 11, "unit": "%"},
      {"measurement": "Agonist IC50 (inhibitory phase, InsP formation)", "setting": "[1]", "result": 80, "unit": "µM"},
      {"measurement": "Antagonist IC50 (InsP formation, against 0.1 nM thrombin)", "setting": "[1]", "result": "> 50", "unit": "µM"}
    ]},
    {"binder": "Palmitoyl-SGSRPTQAKLLAKKRVVR-NH2 (SMILES CCCCCCCCCCCCCCCC(=O)N[C@@H](CO)C(=O)NCC(=O)N[C@@H](CO)C(=O)N[C@@H](CCCNC(=N)N)C(=O)N1CCC[C@H]1C(=O)N[C@H](C(=O)N[C@@H](CCC(N)=O)C(=O)N[C@@H](C)C(=O)N[C@@H](CCCCN)C(=O)N[C@@H](CC(C)C)C(=O)N[C@@H](CC(C)C)C(=O)N[C@@H](C)C(=O)N[C@@H](CCCCN)C(=O)N[C@@H](CCCCN)C(=O)N[C@@H](CCCNC(=N)N)C(=O)N[C@H](C(=O)N[C@H](C(=O)N[C@@H](CCCNC(=N)N)C(N)=O)C(C)C)C(C)C)[C@@H](C)O)", "note": "[Bpal-18 (Pal-SGSRPTQAKLLAKKRVVR)]", "values": [
      {"measurement": "Agonist EC50 (activating phase, InsP formation)", "setting": "[3]", "result": 1.5, "unit": "µM"},
      {"measurement": "Agonist Efficacy (% of full response to 300 nM CCK-8)", "setting": "[3]", "result": 12, "unit": "%"},
      {"measurement": "Agonist IC50 (inhibitory phase, InsP formation)", "setting": "[3]", "result": 10, "unit": "µM"}
    ]}
  ]
}
